Data as given in patent publication US20200040401A1 (KAOHSIUNG MEDICAL UNIVERSITY, published 2020).

Columns and labels:
[1] = molecular target: phosphatidylinositol 3,4,5-trisphosphate Rac exchange factor 2 (PREX2) (UniProt Q70Z35 1-1606, limits assumed); assay: cell-based or functional assay
[2] = molecular target: endogenous PREX2 of mouse liver (mouse, UniProt Q3LAC4 1-1598, limits assumed); assay: reciprocal co-IP, mouse liver lysates (FIG. 1B)
Excerpt: FIG. 1B depicts that mouse liver lysates were used for reciprocal co-IP assay followed by IB analysis.
Please refer to FIG. 1A to FIG. 1G, which illustrates that GNMT interacts with PREX2 and negatively regulates PREX2-mediated AKT signaling. As the data in FIG. 1A illustrated, GNMT interacted with endogenous PREX2. […] To map the binding domain, different Myc-tagged PREX2 truncated mutants were co-expressed with Flag-tagged GNMT in HEK293T cells.

Sequence of phosphatidylinositol 3,4,5-trisphosphate Rac exchange factor 2 (PREX2) (Q70Z35 whole entry): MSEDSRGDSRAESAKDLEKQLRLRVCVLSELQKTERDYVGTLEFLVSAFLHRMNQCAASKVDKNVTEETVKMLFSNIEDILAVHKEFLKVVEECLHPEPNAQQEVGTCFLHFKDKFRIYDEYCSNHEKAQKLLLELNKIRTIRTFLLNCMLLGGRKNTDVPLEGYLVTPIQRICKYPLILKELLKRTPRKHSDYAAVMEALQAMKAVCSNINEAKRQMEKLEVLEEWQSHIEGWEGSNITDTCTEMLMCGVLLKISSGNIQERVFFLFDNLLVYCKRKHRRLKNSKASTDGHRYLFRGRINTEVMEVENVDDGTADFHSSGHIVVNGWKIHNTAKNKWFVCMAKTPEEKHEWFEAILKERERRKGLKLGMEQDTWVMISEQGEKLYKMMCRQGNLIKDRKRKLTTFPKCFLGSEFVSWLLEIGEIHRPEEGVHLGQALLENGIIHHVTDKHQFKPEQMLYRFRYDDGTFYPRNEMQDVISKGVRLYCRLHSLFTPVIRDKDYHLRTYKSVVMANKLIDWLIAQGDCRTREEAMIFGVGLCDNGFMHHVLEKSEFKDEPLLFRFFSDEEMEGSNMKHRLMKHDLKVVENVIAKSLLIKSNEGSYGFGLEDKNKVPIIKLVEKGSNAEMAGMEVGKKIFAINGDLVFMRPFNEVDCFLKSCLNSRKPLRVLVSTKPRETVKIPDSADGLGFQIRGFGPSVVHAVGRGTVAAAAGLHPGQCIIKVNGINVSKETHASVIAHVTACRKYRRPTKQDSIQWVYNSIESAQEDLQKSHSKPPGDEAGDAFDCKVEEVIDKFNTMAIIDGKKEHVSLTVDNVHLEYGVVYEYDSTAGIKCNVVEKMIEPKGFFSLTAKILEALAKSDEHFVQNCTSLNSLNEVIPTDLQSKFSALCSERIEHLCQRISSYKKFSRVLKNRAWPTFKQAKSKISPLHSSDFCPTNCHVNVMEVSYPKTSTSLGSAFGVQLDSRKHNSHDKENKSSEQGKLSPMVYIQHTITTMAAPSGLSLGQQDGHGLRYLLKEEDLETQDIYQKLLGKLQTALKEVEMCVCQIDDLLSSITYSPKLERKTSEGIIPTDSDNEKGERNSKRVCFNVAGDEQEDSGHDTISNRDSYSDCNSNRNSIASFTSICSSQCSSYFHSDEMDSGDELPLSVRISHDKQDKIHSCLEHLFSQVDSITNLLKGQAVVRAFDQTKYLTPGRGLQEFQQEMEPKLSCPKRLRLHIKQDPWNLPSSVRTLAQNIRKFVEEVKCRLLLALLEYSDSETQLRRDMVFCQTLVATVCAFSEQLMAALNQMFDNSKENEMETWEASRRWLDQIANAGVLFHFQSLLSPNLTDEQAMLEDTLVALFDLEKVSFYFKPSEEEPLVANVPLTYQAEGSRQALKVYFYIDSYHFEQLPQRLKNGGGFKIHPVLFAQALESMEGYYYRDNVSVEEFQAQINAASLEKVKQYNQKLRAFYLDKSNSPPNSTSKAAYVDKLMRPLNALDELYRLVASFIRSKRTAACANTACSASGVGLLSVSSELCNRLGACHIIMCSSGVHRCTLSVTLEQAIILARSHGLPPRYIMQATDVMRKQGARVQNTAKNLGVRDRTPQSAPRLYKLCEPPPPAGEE
Sequence of endogenous PREX2 of mouse liver (Q3LAC4 whole entry): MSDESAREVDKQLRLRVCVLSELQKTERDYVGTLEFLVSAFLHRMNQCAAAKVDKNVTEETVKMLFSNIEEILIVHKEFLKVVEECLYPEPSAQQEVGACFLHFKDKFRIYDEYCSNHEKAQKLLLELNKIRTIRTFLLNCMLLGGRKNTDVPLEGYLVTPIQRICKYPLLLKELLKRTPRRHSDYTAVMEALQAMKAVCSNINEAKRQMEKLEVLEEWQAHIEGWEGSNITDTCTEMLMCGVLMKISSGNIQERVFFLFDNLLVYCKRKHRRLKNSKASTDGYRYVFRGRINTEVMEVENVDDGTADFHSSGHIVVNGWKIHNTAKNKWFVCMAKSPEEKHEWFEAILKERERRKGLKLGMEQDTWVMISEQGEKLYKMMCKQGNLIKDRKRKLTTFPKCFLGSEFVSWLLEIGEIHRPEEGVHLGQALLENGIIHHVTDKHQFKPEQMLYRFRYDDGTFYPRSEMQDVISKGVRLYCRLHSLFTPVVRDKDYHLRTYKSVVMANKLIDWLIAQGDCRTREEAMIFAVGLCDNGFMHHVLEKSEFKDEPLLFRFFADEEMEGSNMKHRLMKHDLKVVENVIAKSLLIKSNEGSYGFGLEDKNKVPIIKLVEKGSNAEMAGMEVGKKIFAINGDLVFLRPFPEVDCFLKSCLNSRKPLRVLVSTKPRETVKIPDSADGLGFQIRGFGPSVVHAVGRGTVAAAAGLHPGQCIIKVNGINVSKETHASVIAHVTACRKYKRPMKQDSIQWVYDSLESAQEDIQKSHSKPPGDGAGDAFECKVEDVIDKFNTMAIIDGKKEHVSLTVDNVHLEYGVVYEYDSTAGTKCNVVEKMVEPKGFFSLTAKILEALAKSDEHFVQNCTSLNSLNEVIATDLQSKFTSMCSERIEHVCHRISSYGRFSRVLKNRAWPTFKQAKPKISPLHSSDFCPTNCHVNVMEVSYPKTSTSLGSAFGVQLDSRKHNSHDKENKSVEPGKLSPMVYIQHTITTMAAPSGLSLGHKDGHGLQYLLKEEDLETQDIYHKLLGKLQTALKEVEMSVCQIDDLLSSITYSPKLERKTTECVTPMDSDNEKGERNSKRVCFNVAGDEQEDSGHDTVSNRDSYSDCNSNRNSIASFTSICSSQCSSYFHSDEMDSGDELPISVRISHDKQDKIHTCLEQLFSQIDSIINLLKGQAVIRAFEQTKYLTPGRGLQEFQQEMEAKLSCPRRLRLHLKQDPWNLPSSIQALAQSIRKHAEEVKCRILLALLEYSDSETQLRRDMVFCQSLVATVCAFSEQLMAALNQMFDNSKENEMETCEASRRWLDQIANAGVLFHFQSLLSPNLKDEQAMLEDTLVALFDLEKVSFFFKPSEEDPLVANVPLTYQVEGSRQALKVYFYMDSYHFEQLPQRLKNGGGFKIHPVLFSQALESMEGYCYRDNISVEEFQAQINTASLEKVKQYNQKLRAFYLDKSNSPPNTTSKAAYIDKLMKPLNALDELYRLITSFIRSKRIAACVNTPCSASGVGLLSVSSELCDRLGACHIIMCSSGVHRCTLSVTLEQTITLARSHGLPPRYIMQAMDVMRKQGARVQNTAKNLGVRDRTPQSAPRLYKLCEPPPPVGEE

Row | PREX2 half-life (pulse-chase, 35S-Methionine/Cysteine, Huh7 cells) [1] | binding result [2] | Binder
1 | 9.4 h |  | glycine-N-methyltransferase (GNMT) (enzyme) VDSVYRTRSLGVAAEGLPDQYADGEAARVWQLYIGDTRSRTAEYKAWLLGLLRQHGCQRVLDVACGTGVDSIMLVEEGFSVTSVDASDKMLKYALKERWNRRHEPAFDKWVIEEANWMTLDKDVPQSAEGGFDAVICLGNSFAHLPDCKGDQSEHRLALKNIASMVRAGGLLVIDHRNYDHILSTGCAPPGKNIYYKSDLTKDVTTSVLIVNNKAHMVTLDYTVQVPGAGQDGSPGLSKFRLSYYPHCLASFTELLQAAFGGKCQHSVLGDFKPYKPGQTYIPCYFIHVLKRTD
2 |  | binds | endogenous GNMT of mouse liver (enzyme, UniProt Q9QXF8 2-293, looked up) VDSVYRTRSLGVAAEGLPDQYADGEAARVWQLYIGDTRSRTAEYKAWLLGLLRQHGCHRVLDVACGTGVDSIMLVEEGFSVMSVDASDKMLKYALKERWNRRKEPSFDNWVIEEANWLTLDKDVLSGDGFDAVICLGNSFAHLPDCKGDQSEHRLALKNIASMVRPGGLLVIDHRNYDYILSTGCAPPGKNIYYKSDLTKDITTSVLTVNNKAHMVTLDYTVQVPGTGRDGSPGFSKFRLSYYPHCLASFTELVRAAFGGRCQHSVLGDFKPYKPGQAYVPCYFIHVLKKTD
